Laboratory results published in patent publication EP1192182B1, “PITUITARY ADENYLATE CYCLASE ACTIVATING PEPTIDE (PACAP) RECEPTOR 3 (R3) AGONISTS AND THEIR PHARMACOLOGICAL METHODS OF USE” (priority 1999, dated 2001).
No end group written: not given here.

T1: PACAP-R3 (human, UniProt P41587 24-438)
T1 sequence (looked up): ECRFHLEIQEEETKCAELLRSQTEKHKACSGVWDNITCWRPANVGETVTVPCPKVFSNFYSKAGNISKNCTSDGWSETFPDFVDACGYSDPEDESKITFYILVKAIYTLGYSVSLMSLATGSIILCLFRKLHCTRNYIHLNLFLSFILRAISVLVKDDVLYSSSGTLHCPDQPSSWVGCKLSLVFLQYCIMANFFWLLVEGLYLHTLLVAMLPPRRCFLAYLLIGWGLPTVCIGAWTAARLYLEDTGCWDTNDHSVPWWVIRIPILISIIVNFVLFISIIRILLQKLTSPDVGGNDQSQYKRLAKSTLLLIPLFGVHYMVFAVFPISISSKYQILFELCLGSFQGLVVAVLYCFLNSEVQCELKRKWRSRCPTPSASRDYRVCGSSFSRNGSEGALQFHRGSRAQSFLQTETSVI


The binders below were run against T1, PACAP-R3 (assay: cell-based or functional assay).

| Binder | R3 Selectivity | R3 EC50 |
| --- | --- | --- |
| HSDAVFTDNYTRLRKQMAAKKYLNSITNKR [R3P129] | 50 ratio | – |
| HSDAVFTDNYTRLRKQMAHKKYLNSIKNKR [R3P101] | 400 ratio | 1000 pM |
| HSDAVFTDNYTRLRKQMAKKKYLNSIKNKR [R3P103] | 8 ratio | 50 pM |
| HSDAVFTDNYTRLRKQMAAKKYLNSIENKR [R3P118] | 30 ratio | – |
| HSDAVFTDNYTRLRKQMAFKKYLNSIKNKR [R3P99] | 40 ratio | 1000 pM |
| HSDAVFTDNYTRLRKQMAWKKYLNSIKNKR [R3P113] | 10 ratio | 300 pM |
| HSDAVFTDNYTRLRKQMAAKKYLNSIYNKR [R3P132] | – | 200 pM |
| HSDAVFTDNYTRLRKQMAQKKYLNSIKNKR [R3P108] | 3 ratio | 300000 pM |
| HSDAVFTDNYTRLRKQMAAKKYLNSIQNKR [R3P126] | 200 ratio | 1000 pM |
| HSDAVFTDNYTRLRKQMALKKYLNSIKNKR [R3P104] | 500 ratio | 200 pM |
| HSDAVFTDNYTRLRKQMAAKKYLNSIKNIR [R3P140] | 50 ratio | 300 pM |
| HSDAVFTDNYTRLRKQMAAKKYLNSICNKR [R3P116] | 20 ratio | 1000 pM |
| HSDAVFTDNYTRLRKQMAAKKYLNSIRNKR [R3P127] | 600 ratio | 500 pM |
| HSDAVFTDNYTRLRKQMASKKYLNSIKNKR [R3P110] | 200 ratio | 500 pM |
| HSDAVFTDNYTRLRKQLAAKKYLNDIKK-NH2 [R3P13] | 33 ratio | – |
| HSDAVFTDNYTRLRKQMAAKKYLNSIKNCR [R3P134] | 100 ratio | 400 pM |
| HSDAVFTDNYTRLRKQMAAKKYLNSIKNFR [R3P137] | 100 ratio | 300 pM |
| HSDAVFTDNYTRLRKQMAAKKYLNSIVNKR [R3P130] | 40 ratio | 1000 pM |
| HSDAVFTDNYTRLRKQMAPKKYLNSIKNKR [R3P107] | 5 ratio | 200000 pM |
| HSDAVFTDNYTRLRKQMAAKKYLNSIANKR [R3P115] | 50 ratio | 6000 pM |
| HSDAVFTDNYTRLRKQMAAKKYLNSIFNKR [R3P119] | 30 ratio | 500 pM |
| HSDAVFTDNYTRLRKQMAAKKYLNSISNKR [R3P128] | 200 ratio | 300 pM |
| HSDAVFTDNYTRLRKQMATKKYLNSIKNKR [R3P111] | – | 3000 pM |
| HSDAVFTDNYTRLRKQMAAKKYLNSIGNKR [R3P120] | 50 ratio | 200 pM |
| HSDAVFTDNYTRLRKQMAIKKYLNSIKNKR [R3P102] | 5 ratio | 60000 pM |
| HSDAVFTDNYTKLRKQLAAKKYLNDILNGGT [R3P11] | 3 ratio | – |
| HSDAVFTDNYTRLRKQLAAKKYLNDIKKGGT [R3P12] | > 200 ratio | – |
| HSDAVFTDNYTRLRKQMARKKYLNSIKNKR [R3P109] | 100 ratio | 10000 pM |

The remaining lines, values ahead:

| R3 Selectivity | R3 EC50 | Binder |
| --- | --- | --- |
| 3 ratio | – | HSDAVFTDNYTRLRKQMAVKKYLNDLKKGGT [R3P14] |
| 30 ratio | 300 pM | HSDAVFTDNYTRLRKQMAGKKYLNSIKNKR [R3P100] |
| – | 300 pM | HSDAVFTDNYTRLRKQMAMKKYLNSIKNKR [R3P105] |
| – | 200 pM | HSDAVFTDNYTRLRKQMAAKKYLNSIINKR [R3P122] |
| 30 ratio | 2000 pM | HSDAVFTDNYTRLRKQMAAKKYLNSIPNKR [R3P125] |
| 50 ratio | 1000 pM | HSDAVFTDNYTRLRKQMAAKKYLNSIHNKR [R3P121] |
| 100 ratio | – | HSDAVFTDNYTRLRKQMAAKKYLNSIKNLR [R3P141] |
| 50 ratio | 400 pM | HSDAVFTDNYTRLRKQMAAKKYLNSIKNHR [R3P139] |
| 10 ratio | 2000 pM | HSDAVFTDNYTRLRKQMAYKKYLNSIKNKR [R3P114] |
| 15 ratio | 200 pM | HSDAVFTDNYTRLRKQMAAKKYLNSINNKR [R3P124] |
| 70 ratio | – | HSDAVFTDNYTRLRKQMAAKKYLNSIKNER [R3P136] |
| 70 ratio | 300 pM | HSDAVFTDNYTRLRKQMAAKKYLNSIWNKR [R3P131] |
